According to patent US11440969B2, “Use of human epididymis protein 4 (HE4) for assessing responsiveness of MUC 16-positive cancer treatment” (Genentech, Inc., priority 2016, dated 2022):

System: platinum-resistant ovarian cancer
Experiment: Clinical activity of anti-MUC16-TDC (RECIST v1.1) in ovarian cancer patients
Type: in vivo, human
Conditions: 1.0-5.6 mg/kg q3w
Protocol: This Phase I, multicenter, open-label, dose escalation study was designed to identify the recommended Phase II dose (RP2D) of DMUC4064A (anti-MUC16-TDC) in platinum-resistant ovarian cancer patients and unresectable pancreatic cancer patients. The study employed a traditional 3+3 dose escalation design to determine the maximum tolerated dose (MTD), and the patients were administered intravenous (IV) DMUC4064A (Genentech Inc.) 1.0-5.6 mg/kg every three weeks (q3w) to evaluate the safety, tolerability, and pharmacokinetics of DMUC4064A.
Ovarian cancer patients had advanced epithelial ovarian, primary peritoneal, or fallopian tube cancer that progressed or relapsed within 6 months after the most recent treatment with a platinum-containing chemotherapy regimen. […] Progression or relapse from prior platinum-based chemotherapy was documented by RECIST v1.1. Patients were allowed ≤2 prior chemotherapy regimens.
Treatment (using anti-MUC16-TDC) response rate was estimated for patients with disease that was measurable by RECIST guidelines. Patients were identified as having a partial response (PR), stable disease (SD), or progressive disease (PD) as measured by RECIST v1.1. Objective response is defined as a complete or partial response, as determined by investigator assessment and confirmed by repeat assessments ≥4 weeks after initial documentation. Duration of objective response was defined as the time from the initial complete or partial response to the time of disease progression or death.

[1] = end point of the clinical trial

B1: DMUC4064A (conjugate, chains of the INN, looked up)
VH: EVQLVESGGGLVQPGGSLRLSCAASGYSITNDYAWNWVRQAPGKGLEWVGYISYSGYTTYNPSLKSRFTISRDTSKNTLYLQMNSLRAEDTAVYYCARWTSGLDYWGQGTLVTVSS
VL: DIQMTQSPSSLSASVGDRVTITCKASDLIHNWLAWYQQKPGKAPKLLIYGATSLETGVPSRFSGSGSGTDFTLTISSLQPEDFATYYCQQYWTTPFTFGQGTKVEIK
modifications: vedotin payload (MMAE)
  additional patients with a partial response at some point during the study: six
Conclusion of the study
  patients with progressive disease: ten
[1]
  patients who maintained stable disease: 23
  patients with a partial response to treatment: two
